The results in this text go back to the RNAGym collection of RNA variant scans (doi:10.1093/molbev/msab373).

To fix the notation:
B1: Azoarcus group I ribozyme (parent)
chain: GUGCCUUGCGCCGGGAAACCACGCAAGGGAUGGUGUCAAAUUCGGCGAAACCUAAGCGCCCGCCCGGGCGUAUGGCAACGCCGAGCCAAGCUUCGGCGCCUGCGCCGAUGAAGGUGUAGAGACUAGACGGCACCCACCUAAGGCAAACGCUAUGGUGAAGGCAUAGUCCAGGGAGUGGCGAAAGUCACACAAACCGG

Variants of B1 are the subject of this data set. The data set can be described thus: reverse-splicing fitness (ratio to wild type); higher = more active; in vitro selection; Mg2+ level not given. An outline of the steps: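 An in vitro group I ribozyme library with randomized positions was T7-transcribed and gel-purified. In triplicate, 10 pmol RNA in EPPS pH 7.5 was reacted with 50 pmoles of a 30-nt RNA substrate for 1 h at 37 °C across several added MgCl2 levels (1–48 mM), then stopped with EDTA. Products were reverse transcribed from a substrate-complementary primer, PCR-amplified and sequenced (HiSeq 4000). Fitness is a variant's read proportion after selection over that before, normalised to wild type.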
Turning to C82G A120U A145U C169A U176G, the reverse-splicing fitness is 0.0013.
Consider C82G A120U A145U, for which the reverse-splicing fitness is 0.23.
Take C82G A120U A145U C150U C169G U176G: the reverse-splicing fitness amounted to 0.00167.
C82G A120U A145U C150U C169G U176A: the reverse-splicing fitness was 0.00248.
As to C82G A120U A145U C150U C169G U176C, the reverse-splicing fitness came out at 0.00331.
To C82G A120U A145G C169U belongs 0.00713; to C82G A120U A145G C169A, 0.00321; to C82G A120U A145G C169G, 0.00688.
With C82G A145U C150G C169U U176C, the reverse-splicing fitness is 0.0119.
As to C82G A145U C150G C169U U176G, the reverse-splicing fitness was determined as 0.0049.
Consider C82G A145U C150G C169U U176A, for which the reverse-splicing fitness came to 0.00876.
On to C82G A145G C150U C169A, for which the reverse-splicing fitness was 0.0118.
C82G A145G C150U C169U: the reverse-splicing fitness came to 0.0159.
For C82G A145G C150U C169G, the reverse-splicing fitness came out at 0.012.
As for C82G A120U A145U C150A C169A, the reverse-splicing fitness was found to be 0.00187.
Consider C82G A120U A145U C150A C169G, for which the reverse-splicing fitness is 0.00252.
Turning to C82G A120U A145U C150A C169U, the reverse-splicing fitness is 0.00221.
In the case of C82G A120U A145G C169G U176C, the reverse-splicing fitness was found to be 0.00438.
Regarding C82G A120U A145G C169G U176G, the reverse-splicing fitness was 0.00145.
For the variant C82G A120U A145G C169G U176A, the reverse-splicing fitness came to 0.00368.
For the variant C82G A120U C169G U176G, the reverse-splicing fitness stood at 0.00147.
Turning to C82G A120U C169G U176C, the reverse-splicing fitness worked out at 0.00322.
Turning to C82G A120U C169G U176A, the reverse-splicing fitness was 0.00367.
With C82G A145U C150U C169U U176C, the reverse-splicing fitness was found to be 0.0121.
Turning to C82G A145U C150U C169U U176A, the reverse-splicing fitness was 0.0118.
Turning to C82G A145U C150U C169U U176G, the reverse-splicing fitness came to 0.00492.
C82G A120U A145U C150A: the reverse-splicing fitness worked out at 0.0151.
Regarding C82G A120U A145U C150G, the reverse-splicing fitness turned out to be 0.0173.
As for C82G A120U A145U C150U, the reverse-splicing fitness came out at 0.131.
In the case of C82G A145G, the reverse-splicing fitness was 0.458.
For C82G A145U, the reverse-splicing fitness came out at 0.509.
Take C82G A145C: the reverse-splicing fitness is 0.45.
With C82G A145C C150A C169U U176C, the reverse-splicing fitness stood at 0.00742.
The same measure for C82G A145C C150A C169U U176G: 0.00493; for C82G A145C C150A C169U U176A: 0.0123; for C82G A145G C150G C169A U176G: 0.00858.
C82G A145G C150G C169A U176A: the reverse-splicing fitness worked out at 0.0146.
For C82G A145G C150G C169A U176C, the reverse-splicing fitness came to 0.0144.
For C82G A120U A145U C150G C169G, the reverse-splicing fitness was 0.00287.
Take C82G A120U A145U C150G C169U: the reverse-splicing fitness is 0.00283.
With C82G A120U A145U C150G C169A, the reverse-splicing fitness came to 0.00271.
As to C82G A145U C150G C169A U176G, the reverse-splicing fitness worked out at 0.00553.
On to C82G A145U C150G C169A U176C, for which the reverse-splicing fitness came to 0.0105.
In the case of C82G A145U C150G C169A U176A, the reverse-splicing fitness was found to be 0.0121.
C82G A145U C150A U176G: the reverse-splicing fitness came to 0.0186.
To C82G A145U C150A U176C belongs 0.0384; to C82G A145U C150A U176A, 0.0428; to C82G A120U A145G U176A, 0.0724.
Turning to C82G A120U A145G U176C, the reverse-splicing fitness amounted to 0.11.
As to C82G A120U A145G U176G, the reverse-splicing fitness came to 0.0134.
Consider C82G A120U A145G C150U C169A U176C, for which the reverse-splicing fitness was 0.0027.
As to C82G A120U A145G C150U C169A U176A, the reverse-splicing fitness stood at 0.00578.
As to C82G A120U A145G C150U C169A U176G, the reverse-splicing fitness was determined as 0.00223.
To C82G A120U A145U C150A C169U U176G belongs 0.00185; to C82G A120U A145U C150A C169U U176C, 0.0022; to C82G A120U A145U C150A C169U U176A, 0.00242.
For the variant C82G A145U C169A, the reverse-splicing fitness came to 0.00844.
To C82G A120U A145U C150G C169G U176A belongs 0.00237; to C82G A120U A145U C150G C169G U176C, 0.0022.
To C82G A120U A145U C150G C169G U176G belongs 0.00182; to C82G A145C C150A C169A U176G, 0.00515.
The same measure for C82G A145C C150A C169A U176C: 0.0049; for C82G A145C C150A C169A U176A: 0.0106; for C82G A145G C150U C169A U176G: 0.00619.
For the variant C82G A145G C150U C169A U176A, the reverse-splicing fitness is 0.0169.
Consider C82G A145G C150U C169A U176C, for which the reverse-splicing fitness is 0.0162.
The same measure for C82G A145G C150A C169U U176G: 0.00552; for C82G A145G C150A C169U U176A: 0.0137.
With C82G A145G C150A C169U U176C, the reverse-splicing fitness turned out to be 0.0141.
Take C82G A120U U176C: the reverse-splicing fitness was determined as 0.113.
For C82G A120U U176A, the reverse-splicing fitness came to 0.0729.
To C82G A120U U176G belongs 0.0201.
With C82G A120U C150U C169U U176A, the reverse-splicing fitness was found to be 0.00509.
C82G A120U C150U C169U U176C: the reverse-splicing fitness came out at 0.00336.
Consider C82G A120U C150U C169U U176G, for which the reverse-splicing fitness was 0.00193.
In the case of C82G A145G C150U U176G, the reverse-splicing fitness amounted to 0.106.
With C82G A145G C150U U176A, the reverse-splicing fitness was found to be 0.264.
For C82G A145G C150U U176C, the reverse-splicing fitness is 0.291.
For C82G A145G C169G U176G, the reverse-splicing fitness was 0.00454.
As to C82G A145G C169G U176C, the reverse-splicing fitness came out at 0.0279.
Turning to C82G A145G C169G U176A, the reverse-splicing fitness worked out at 0.0176.
Consider C82G A120U A145U C150A C169A U176A, for which the reverse-splicing fitness was determined as 0.00218.
As for C82G A120U A145U C150A C169A U176C, the reverse-splicing fitness came to 0.00199.
To C82G A120U A145U C150A C169A U176G belongs 0.00156.
